This is an account of results in patent US20060115474A1 (LIFE SCIENCES RESEARCH PARTNERS VZW, published 2006).

The target of this assay is T1, Factor VIII C1 domain with the substitution Arg2150His (UniProt P00451 2039-2191, 35S-methionine labelled).
T1 construct: domain: C1; Position as printed (Factor VIII of 2,332 residues); also called mutant C1 domain
T1 sequence: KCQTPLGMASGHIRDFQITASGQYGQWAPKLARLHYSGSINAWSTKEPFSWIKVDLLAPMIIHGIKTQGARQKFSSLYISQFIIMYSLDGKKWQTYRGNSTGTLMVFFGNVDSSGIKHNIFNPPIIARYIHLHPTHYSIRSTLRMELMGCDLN
The assay can be described thus: immunoprecipitation of radiolabelled C1 domain. As for the experimental part: Radiolabelled native Factor VIII C1 domain and mutant C1 domain carrying the substitution Arg2150His were incubated with human mAbs RHD5 and KRIX-1 bound to protein A sepharose. After washing, the bound material was eluted by boiling in SDS-buffer. The radioactivity of bound material was measured using a scintillation counter (A) or analysed by SDS-PAGE followed by autoradiography (B). Controls included a human mAb, BO2C1, directed toward the Factor VIII C2 domain and normal human plasma (H. plasma).
Immunoprecipitation of L-[³⁵S]methionine-Labeled Factor VIII Fragments [0230] One to three μL of standard in vitro translation product was added to 500 μL human antibody at 2 μg/mL in NET-gel buffer (50 mM Tris-HCl, pH 7.5; 150 mM NaCl; 0.1% Nonided NP-40; 1 mM EDTA (pH 8); 0.25% gelatin and 5% BSA). Tubes were gently rocked for 1 hour at 4° C. Twenty μL of a 50% solution of Protein A Sepharose was then added to the antigen/antibody mixture, and incubated for 1 hour at 4° C. on a rocking platform. The Sepharose beads were centrifuged and washed twice with Tris-NP40 (10 mM Tris-HCl (pH 7.5); 0.1% NP40). […] The radioactivity of eluted material was measured using a scintillation counter. In addition, an aliquot of 15 μL was analysed by 10% (w/v) polyacrylamide gel electrophoresis and visualized by autoradiography. […]

B1: RHD5 human monoclonal antibody produced by the RHD5 cell line (LMBP 6165CB) (antibody, IgG1, V domains shown)
VH: QVQLVQSGAEVKKPGSSVMVSCKASGGTFSSFGISWVRQAPGQGLEWVGGIIPIFGTANTARNFQNRVTITADEFTSTAYIRLRSLRSEDTAVYYCVGGRDAYSFDGFDVWGQGTMVTVSS
VL: SSGLTQPHSVSVSPGQTANITCSRDKLGHKFASWYQQKPGQSPALLIYQDSKRPSGIPERFSGSNSGNTATLTISGTQAMDEADYYCQAWDNTTAVFGGGTKLTVLS
notes: also called mAb-RHD5; Mab-RHD5
Regarding B1, the binding result is “no binding (tested: 2 µg/mL antibody)”.
